The labels stand for the following.
B1: humanized antibody hu17-H3L1 (antibody, human IgG1, kappa, L234A L235A, V domains shown)
VH: QVTLKESGPTLVKPTQTLTLTCSFSGFSLSTSGMGVAWIRQPPGKALEWLAHIWWDDDKRYNPSLKSRLTITKDTSKNQVVLTMTNMDPVDTATYYCARPQFITTVVAFYWYFDVWGQGTTVTVSS
VL: DILLTQSPSSLSVSVGDRVTITCRASENIYSNLAWYQQKPGKAPKLLVYAATNLADGVPSRFSGSGSGTQYTLTISSLQPEDFATYYCQHFWGTPWTFGGGTKLEIKR
B2: humanized antibody hu17-H2L1 (antibody, human IgG1, kappa, L234A L235A, V domains shown)
VH: B1 VH with Q1E, S64A, M84I, M87V
VL: B1 VL
B3: humanized antibody hu17-H4L1 (antibody, human IgG1, kappa, L234A L235A, V domains shown)
VH: B1 VH with S23T, N62G
VL: B1 VL
B4: murine antibody 17-F12-G8-A6 (antibody, V domains shown)
VH: EVTLKESGPGILQPSQTLSLTCSFSGFSLSTSGMGVAWIRQPSGKGLEWLAHIWWDDDKRYNPALKSRLTISKDTSSNQVFLKIASVDTADTATYYCARPQFITTVVAFYWYFDVWGAGTTVTVSS
VL: DILLTQSPASLSVSMGETVTITCRASENIYSNLAWYQQKQGKSPQLLVYAATNLADGVPSRFSGSGSGTQYSLKINSLQSEDFGSYYCQHFWGTPWTFGGGTKLEIK

Residue numbers refer to the chain shown, from its start.

A word on the EC50: it is the concentration giving half of the maximal effect. Lower therefore signals a more potent agent. As usually defined, the Kd is the constant that tells how readily two partners part at equilibrium. Lower therefore signals tighter binding. For orientation: koff means the rate constant with which the complex falls apart. As a reminder, the kon is the rate constant with which the complex forms.

T2 sequence (Q01973 308-395 limits assumed): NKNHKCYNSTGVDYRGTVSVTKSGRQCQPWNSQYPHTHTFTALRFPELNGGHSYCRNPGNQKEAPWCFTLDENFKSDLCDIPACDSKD

For one assay, the target named is T1, ROR1 on stably transgenic ROR1-expressing cells MDA-MB-231-ROR1 (UniProt Q01973 30-937, limits assumed).
T1 construct: whole, on cells
T1 sequence (Q01973 30-937 limits assumed): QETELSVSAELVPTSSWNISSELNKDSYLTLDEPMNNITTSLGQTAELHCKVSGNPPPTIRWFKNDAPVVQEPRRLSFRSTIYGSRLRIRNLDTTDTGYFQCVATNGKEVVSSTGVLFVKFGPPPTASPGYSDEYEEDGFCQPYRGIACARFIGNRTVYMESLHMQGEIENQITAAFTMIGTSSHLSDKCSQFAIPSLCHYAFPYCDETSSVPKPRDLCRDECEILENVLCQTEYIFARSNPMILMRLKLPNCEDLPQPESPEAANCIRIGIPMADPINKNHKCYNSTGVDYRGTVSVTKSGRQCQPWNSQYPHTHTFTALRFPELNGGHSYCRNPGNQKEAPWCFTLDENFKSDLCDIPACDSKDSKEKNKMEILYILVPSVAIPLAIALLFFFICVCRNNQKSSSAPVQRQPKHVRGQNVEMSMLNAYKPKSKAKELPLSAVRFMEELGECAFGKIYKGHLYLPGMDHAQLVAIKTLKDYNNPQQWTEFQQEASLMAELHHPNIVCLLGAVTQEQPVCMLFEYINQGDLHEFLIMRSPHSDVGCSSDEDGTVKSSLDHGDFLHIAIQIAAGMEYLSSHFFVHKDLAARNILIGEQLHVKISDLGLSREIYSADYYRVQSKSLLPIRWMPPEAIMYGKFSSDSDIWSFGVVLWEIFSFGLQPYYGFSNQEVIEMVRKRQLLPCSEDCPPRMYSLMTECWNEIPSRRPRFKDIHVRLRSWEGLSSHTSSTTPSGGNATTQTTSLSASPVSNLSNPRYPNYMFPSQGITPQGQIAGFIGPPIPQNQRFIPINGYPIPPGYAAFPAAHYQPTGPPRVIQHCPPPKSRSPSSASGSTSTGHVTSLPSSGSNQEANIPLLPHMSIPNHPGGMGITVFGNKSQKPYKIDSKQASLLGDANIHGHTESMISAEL
The experiment in a line: flow cytometry on MDA-MB-231-ROR1 cells.
Regarding B1, a half-maximal response (EC50) required 0.107 µg/mL.

Molecule B2 registered an EC50 of 0.114 µg/mL.

With B3, the response was half-maximal at 0.101 µg/mL (EC50).

B4 returned an EC50 of 0.0988 µg/mL. This EC50 and that of the molecule before are within 1.5-fold of each other.

Another assay has as its target T2, ROR1 protein (ACROBiosystems, Cat# RO1-H5223) (UniProt Q01973 308-395).
T2 construct: Bought protein
Description: ELISA on ROR1 protein, anti-IgG secondary antibody, OD450. In general terms: In an ELISA, binding on a coated surface is turned into a signal by an enzyme label.
Consider B1, for which the EC50 turned out to be 0.0014 µg/mL.

In the case of B2, the response was half-maximal at 0.00142 µg/mL (EC50). The EC50 values of the last two molecules are within 1.5-fold of each other.

As for B3, the EC50 came out at 0.00116 µg/mL. This EC50 and that of the molecule before are within 1.5-fold of each other.

As to B4, the EC50 was 0.00136 µg/mL. The EC50 values of the last two molecules are within 1.5-fold of each other.

In the next assay the target is T3, ROR1 antigen (UniProt Q01973 30-403, limits assumed).
T3 construct: construct not described
T3 sequence (Q01973 30-403 limits assumed): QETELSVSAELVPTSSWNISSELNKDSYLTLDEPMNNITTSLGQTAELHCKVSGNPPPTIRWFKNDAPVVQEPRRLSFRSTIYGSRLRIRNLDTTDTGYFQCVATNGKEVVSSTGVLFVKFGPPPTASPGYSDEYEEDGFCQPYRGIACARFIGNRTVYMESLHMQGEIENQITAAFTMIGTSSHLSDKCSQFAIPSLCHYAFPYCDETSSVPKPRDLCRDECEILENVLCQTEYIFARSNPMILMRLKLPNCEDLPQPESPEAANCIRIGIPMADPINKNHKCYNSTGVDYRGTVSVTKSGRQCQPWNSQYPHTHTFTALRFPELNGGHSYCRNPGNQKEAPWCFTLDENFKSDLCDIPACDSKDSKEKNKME
Description: BLI (Octet RED96e), antibody on sensor, ROR1 antigen from 100 nM in 2-fold dilutions.
The molecule B1 registered a Kd of 32.4 nM, a koff of 0.0279 s⁻¹ and a kon of 859000 M⁻¹ s⁻¹.

For the molecule B2, the affinity, expressed as Kd, was 22.7 nM; the koff stood at 0.0185 s⁻¹; the kon was 814000 M⁻¹ s⁻¹.

The molecule B3 registered a Kd of 20 nM, a koff of 0.0147 s⁻¹ and a kon of 738000 M⁻¹ s⁻¹.

On to B4, for which the Kd came out at 14.8 nM, the koff is 0.0105 s⁻¹ and the kon was 708000 M⁻¹ s⁻¹.

The values above are taken from patent EP4755914A1 (CSPC Megalith Biopharmaceutical Co., Ltd., dated 2025).
